The source of these data is patent publication US20230355711A1.

In the assay the target is recombinant SARS-CoV-2 spike protein (S1S2ECD-His; Sino Biological) (SARS-CoV-2) (UniProt P0DTC2).

In the case of “heat-inactivated recombinant human rod domain of vimentin (ΔrhRod) (from UniProt P08670 96-407)”, the Kd is 1100 nM.
